The target of experiment [1] is T1, recombinant human Hyper-IL-6 (HyIL-6), fusion of human sIL-6Rα and human IL-6 (human).
T1 construct: also called human IL-6Rα/IL-6 chimera; fusion protein of sIL-6Rα/IL-6
Nature of the experiment: indirect ELISA, HyIL-6 coated at 60 ng/well, four-parameter fit; coated human HyIL-6. The method, then:
(§1) FIG. 4 illustrates the binding characteristics of purified C14mab. (a) The microplates were coated with human IL-6 (20 ng/well), HyIL-6 (60 ng/well), and IL-6 Ra (40 ng/well). Serial dilutions of C14mab were added for 1 hr at room temperature. The binding ELISA data is graphed with OD₄₅₀ readings and their associated binding percentages vs. log antibody concentration. Data are compiled from three independent experiments. Values represent the mean±SEM. (b) Data were normalized to maximum signal for IL-6 and HyIL-6 individually. EC₅₀ values were obtained by nonlinear regression fitting to a variable slope, four-parameter dose-response model using the GraphPad Prism software (San Diego, Calif., USA). (c) The binding of mouse HyIL-6 (60 ng/well) with C14mab was measured by ELISA as described in (a). Values represent the mean±SEM from three independent experiments.
In general terms: An ELISA detects its analyte on a solid surface through an enzyme-linked reagent.

For experiment [2], the target named is T2, recombinant human IL-6 (human, UniProt P05231 30-212).
T2 construct: Bought protein (R&D systems); also called Interleukin-6
Nature of the experiment: indirect ELISA, IL-6 coated at 20 ng/well, four-parameter fit; coated IL-6. The method, then: as §1

For experiment [3], the target named is T3, mouse HyIL-6 (mouse IL-6/IL-6Rα complex, R&D systems) (mouse, UniProt P22272 20-357; P08505 25-211, limits assumed).
T3 construct: not shown: linker, if any, is not described for the bought mouse protein
T3 sequence (chain (part 1 of 2), looked up): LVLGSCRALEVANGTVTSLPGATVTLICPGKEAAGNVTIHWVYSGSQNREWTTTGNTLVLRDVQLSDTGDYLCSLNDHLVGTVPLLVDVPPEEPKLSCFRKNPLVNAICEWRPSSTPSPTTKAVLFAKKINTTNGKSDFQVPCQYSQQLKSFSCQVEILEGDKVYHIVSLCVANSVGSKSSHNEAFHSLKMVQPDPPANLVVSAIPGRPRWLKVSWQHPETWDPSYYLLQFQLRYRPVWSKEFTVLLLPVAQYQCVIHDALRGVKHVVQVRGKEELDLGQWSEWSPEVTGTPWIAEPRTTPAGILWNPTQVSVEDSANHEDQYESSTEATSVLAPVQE
T3 sequence (chain (part 2 of 2), looked up): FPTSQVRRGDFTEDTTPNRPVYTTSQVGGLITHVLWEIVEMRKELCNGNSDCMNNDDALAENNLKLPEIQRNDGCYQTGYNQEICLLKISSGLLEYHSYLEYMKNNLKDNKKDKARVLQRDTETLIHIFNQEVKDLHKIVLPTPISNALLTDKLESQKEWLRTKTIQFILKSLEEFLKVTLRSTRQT
Nature of the experiment: ELISA, coated mouse HyIL-6 (60 ng/well), serial dilution of purified C14mab [c]. As for the experimental part:
as §1

The target of experiment [4] is T1, recombinant human Hyper-IL-6 (HyIL-6), …. Nature of the experiment: BLI (Octet), KD on HyIL-6 against KD on IL-6. As for the experimental part:
(§2) FIG. 5 illustrates the binding kinetics of C14mab. Biolayer interferometry analysis of the binding of C14mab to IL-6 (a) and HyIL-6 (b) was carried out. […] Kinetic parameters were evaluated by using a 1:1 binding model with global fitting. The experimental curves of each concentration (solid line) are shown alongside the fitted curves (dashedline). One representative set of curves is shown from three independent experiments.
(§3) Octet is based on Bio-Layer Interferometry (BLI) for measuring protein-protein interactions. BLI analyzes the interference pattern of white light reflected from two surfaces: a layer of immobilized protein on the biosensor tip and an internal reference layer. The binding between C14mab immobilized on the biosensor tip surface using Biosensor AMC tips (ForteBio, Pall Corporation) and IL-6 (R&D systems) and HyIL-6 (R&D systems) in complex was measured. Interference patterns for the binding to or dissociating from the biosensor were measured in real time to generate a response profile on the Octet® System Octet 96 Red (ForteBio, Pall Corporation). Kinetic parameters were evaluated by using a 1:1 binding model with global fitting of three independent experiments with the Octet Red analysis software.
For orientation: In BLI a coated tip is dipped into the sample, and binding shifts an interference pattern.

The target of experiment [5] is T2, recombinant human IL-6. Nature of the experiment: BLI (Octet), C14mab on anti-mouse Fc capture sensor, IL-6 1.56-25 nM, 1:1 global fit. As for the experimental part:
as §2, §3

The target of experiment [6] is T4, IL-6Rα (soluble IL-6 receptor alpha, R&D systems) (human, UniProt P08887 20-358).
T4 construct: also called IL-6 Ra; sIL-6Rα
T4 sequence (looked up): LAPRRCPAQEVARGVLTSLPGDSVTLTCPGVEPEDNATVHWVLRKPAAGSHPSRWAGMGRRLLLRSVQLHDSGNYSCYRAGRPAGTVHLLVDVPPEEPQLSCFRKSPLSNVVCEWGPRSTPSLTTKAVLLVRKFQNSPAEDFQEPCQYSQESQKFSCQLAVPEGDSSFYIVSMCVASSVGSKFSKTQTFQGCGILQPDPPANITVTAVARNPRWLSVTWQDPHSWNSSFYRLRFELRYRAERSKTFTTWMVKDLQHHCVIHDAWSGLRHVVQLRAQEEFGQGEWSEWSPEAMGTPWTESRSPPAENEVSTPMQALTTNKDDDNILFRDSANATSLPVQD
In words: ELISA, coated IL-6Rα (40 ng/well), serial dilution of purified C14mab [a]. As for the experimental part:
as §1

Experiment [7] addresses T5, IL-6/IL-6Rα complex (IL-6 bound to sIL-6Rα, not fused) (human, UniProt P08887 20-358; P05231 30-212).
T5 construct: Non-covalent complex; also called IL-6/sIL-6Rα combination; IL-6/sIL-6R combination
Nature of the experiment: ELISA, coated sIL-6Rα (50 ng/well), IL-6 (10 ng/well) added, C14mab added without washing off unbound IL-6 [b]. As for the experimental part:
FIG. 8 illustrates the epitope of HyIL-6/C14mab interaction. (a) Differential HDX of HyIL-6 upon C14mab binding. […] (b) A scheme depicts the assay procedure (left panel). The microplates were coated with sIL-6 Rα (50 ng/well) in PBS buffer at 4° C. overnight and blocked with 1% BSA in PBS for 1 hr. Then plates were washed with PBS containing 0.05% Tween-20. Upper; without washing group, IL-6 (10 ng/well) was added for 1 hr at room temperature. Then serial dilution concentrations of C14mab were added directly for another 2 hrs. Lower; washing group, IL-6 (10 ng/well) was added for 1 hr at room temperature. After plates were washed with PBS containing 0.05% Tween-20, serial dilution concentrations of C14mab were added directly for another 1 hr. The bound C14mab was determined by ELISA. The binding results with or without washing before C14mab incubation are shown in blue and red, respectively (right panel). One representative assay of 3 is shown.
To further understand the C14mab binding mechanism in HyIL-6, we performed an indirect ELISA assay using C14mab as a detection antibody. Briefly, IL-6Rα was immobilized directly on the plate and then IL-6 was added to the IL-6Rα and allowed to bind. The unbound IL-6 was washed away and the IL-6/IL-6Rα complex was detected by C14mab (FIG. 8(b)).

The target in experiment [8] is T1, recombinant human Hyper-IL-6 (HyIL-6), …. Nature of the experiment: indirect ELISA, EC50 on HyIL-6 against EC50 on IL-6. As for the experimental part:
as §1

Experiment [9] shares this target. In words: BLI (Octet), C14mab on anti-mouse Fc capture sensor, HyIL-6 1.56-25 nM, 1:1 global fit. The method, then:
as §2, §3

One may read the EC50 as the concentration at which the effect is half-maximal. What is called Kd is the free concentration of one partner at which half of the binding sites on the other are occupied at equilibrium, for simple one-to-one binding. One may read the koff as a measure of how fast the partners let go of each other. A word on the kon: it is the second-order rate constant of association. A word on the EC50 (read off the curve): it is the concentration needed to bring the measured effect to its halfway point.

B1: C14 monoclonal antibody (C14mab) (antibody, IgG1, V domains shown)
VH: EVNLEESGGGLVQPGGSMQLSCAASGFTFSDAWMDWVRQSPEKGLEWVAEVRTKGYYPVTFYAESVKGRFTISRDDSKSSVYLQMNSLRAEDTGIYYCTRPHYGYGYFDVWGAGTTVTVSS
VL: not shown
notes: Early experiments used the C14 hybridoma culture supernatant; also called C14 clone
Regarding B1, the 50% effective concentration (EC50) in [1] was found to be 0.0043 µg/mL; in the experiment with recombinant human IL-6 [2], 0.0153 µg/mL. In addition, the binding result in [3] and in experiment [6] was “no binding (tested: 10 µg/ml)” each time. In addition, in [4], the “fold binding strength against IL-6” value is around 4 times. In addition, the Kd in the experiment with recombinant human IL-6 [5] came out at 1.13 nM; in experiment [9], 0.286 nM. Moreover, the figures for the koff (with recombinant human IL-6 [5]; in [9]) were 0.000665 s⁻¹ and 0.000144 s⁻¹, respectively. For the same molecule, the kon in the experiment with recombinant human IL-6 [5] amounted to 605000 M⁻¹ s⁻¹; in experiment [9], 498000 M⁻¹ s⁻¹. Further, the “EC50 (read off the curve)” value in experiment [7] is around 0.6 µg/mL. Moreover, the “fold stronger EC50 than for IL-6” value in experiment [8] was around 3.5 times.
